{
  "source": "patent US20220135638A1",
  "about": "(Takeda / Millennium, published 2022)",
  "key": {"[1]": {"biological_target": "T1, full-length human GIPR (GenBank NM_000164) with an N-terminal FLAG tag on HEK-293T cells (human), P48546", "T1 chain": "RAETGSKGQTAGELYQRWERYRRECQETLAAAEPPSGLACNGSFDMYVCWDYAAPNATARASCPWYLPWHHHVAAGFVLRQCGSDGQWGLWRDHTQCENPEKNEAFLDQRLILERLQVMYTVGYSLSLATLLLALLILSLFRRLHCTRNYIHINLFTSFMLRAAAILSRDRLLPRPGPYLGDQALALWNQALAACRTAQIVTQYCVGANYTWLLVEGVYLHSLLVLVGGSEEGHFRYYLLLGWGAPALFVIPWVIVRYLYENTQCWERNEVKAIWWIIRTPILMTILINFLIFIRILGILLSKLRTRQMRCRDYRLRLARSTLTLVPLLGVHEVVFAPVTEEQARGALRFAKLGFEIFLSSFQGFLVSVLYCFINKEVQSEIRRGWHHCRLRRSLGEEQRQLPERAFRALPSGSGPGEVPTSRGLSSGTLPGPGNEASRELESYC", "experiment": "cell-based or functional assay"}, "[2]": {"biological_target": "T2, full-length human GLP-1R (GenBank NM_002062) with an N-terminal FLAG tag on HEK-293T cells (human), P43220", "T2 chain": "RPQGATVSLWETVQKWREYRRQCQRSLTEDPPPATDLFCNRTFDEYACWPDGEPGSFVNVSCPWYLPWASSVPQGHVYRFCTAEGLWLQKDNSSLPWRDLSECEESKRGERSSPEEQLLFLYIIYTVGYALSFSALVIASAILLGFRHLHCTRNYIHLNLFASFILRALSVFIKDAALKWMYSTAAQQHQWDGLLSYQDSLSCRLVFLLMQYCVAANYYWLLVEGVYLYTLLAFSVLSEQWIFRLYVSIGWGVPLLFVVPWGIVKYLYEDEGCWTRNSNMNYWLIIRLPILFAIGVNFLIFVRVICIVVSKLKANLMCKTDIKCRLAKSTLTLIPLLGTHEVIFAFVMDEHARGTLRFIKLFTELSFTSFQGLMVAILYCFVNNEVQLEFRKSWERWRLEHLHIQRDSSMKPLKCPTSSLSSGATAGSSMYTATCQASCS", "experiment": "cell-based or functional assay"}},
  "note": "Numbered stars: 1 amine (or outer) side, 2 acyl side, 3 side chain; on linkers, the order of the positions; unused ones are H or OH. Square brackets hold non-standard residues; d marks the D form. Primed or numbered codes have the meaning given here. Side chains are listed from the residue outwards. Ends that are not written are not given here. * marks the point of attachment. C20 diacid = O=C(O)CCCCCCCCCCCCCCCCCCC(=O)*; C18 diacid = O=C(O)CCCCCCCCCCCCCCCCC(=O)*; C16 diacid = O=C(O)CCCCCCCCCCCCCCC(=O)*; γGlu = O=C(O)[C@H](CCC(=O)[*:2])N[*:1]; Iva = CC[C@](C)(N)C(=O)O; PEG3′ = not defined here; Aib = CC(C)(N)C(=O)O",
  "data": [
    {"binder": "Y[Aib]EGTFISDYSIALDR[Aib]HQ[Aib]NFVNW[Iva]LAQRPSSGAK([PEG3′-PEG3′-γGlu-C16 diacid])PPS (ends and bridges not checked)", "note": "[Compound No. 500]", "values": [
      {"measurement": "GIP EC50(pM)", "setting": "[1]", "value": 0.59, "unit": "pM"},
      {"measurement": "GLP EC50", "setting": "[2]", "value": "> 1", "unit": "µM"}
    ]},
    {"binder": "Y[Aib]EGTFISDYSIALDR[Aib]HQ[Aib]NFVNW[Iva]LAQRPSSGAK([PEG3′-PEG3′-γGlu-Ida])PPS (ends and bridges not checked)", "note": "[Compound No. 501]", "values": [
      {"measurement": "GIP EC50(pM)", "setting": "[1]", "value": 0.92, "unit": "pM"},
      {"measurement": "GLP EC50", "setting": "[2]", "value": "> 1", "unit": "µM"}
    ]},
    {"binder": "Y[Aib]EGTFISDYSIALDR[Aib]HQ[Aib]NFVNW[Iva]LAQRPSSGAK([PEG3′-PEG3′-γGlu-C20 diacid])PPS (ends and bridges not checked)", "note": "[Compound No. 502]", "values": [
      {"measurement": "GIP EC50(pM)", "setting": "[1]", "value": 1.78, "unit": "pM"},
      {"measurement": "GLP EC50", "setting": "[2]", "value": "> 1", "unit": "µM"}
    ]},
    {"binder": "Y[Aib]EGTFISDYSIALDR[Aib]HQ[Aib]NFVNW[Iva]LAQRPSSGAPK([PEG3′-PEG3′-γGlu-C16 diacid])PS (ends and bridges not checked)", "note": "[Compound No. 503]", "values": [
      {"measurement": "GIP EC50(pM)", "setting": "[1]", "value": 0.49, "unit": "pM"},
      {"measurement": "GLP EC50", "setting": "[2]", "value": "> 1", "unit": "µM"}
    ]},
    {"binder": "Y[Aib]EGTFISDYSIALDR[Aib]HQ[Aib]NFVNW[Iva]LAQRPSSGAPK([PEG3′-PEG3′-γGlu-Ida])PS (ends and bridges not checked)", "note": "[Compound No. 504]", "values": [
      {"measurement": "GIP EC50(pM)", "setting": "[1]", "value": 1.08, "unit": "pM"},
      {"measurement": "GLP EC50", "setting": "[2]", "value": "> 1", "unit": "µM"}
    ]},
    {"binder": "Y[Aib]EGTFISDYSIALDR[Aib]HQ[Aib]NFVNW[Iva]LAQRPSSGAPK([PEG3′-PEG3′-γGlu-C20 diacid])PS (ends and bridges not checked)", "note": "[Compound No. 505]", "values": [
      {"measurement": "GIP EC50(pM)", "setting": "[1]", "value": 2.11, "unit": "pM"},
      {"measurement": "GLP EC50", "setting": "[2]", "value": "> 1", "unit": "µM"}
    ]},
    {"binder": "Y[Aib]EGTFISDYSIALDR[Aib]HQ[Aib]NFVNW[Iva]LAQRK([PEG3′-γGlu-C16 diacid])SSGAPPPS (ends and bridges not checked)", "note": "[Compound No. 509]", "values": [
      {"measurement": "GIP EC50(pM)", "setting": "[1]", "value": 0.54, "unit": "pM"},
      {"measurement": "GLP EC50", "setting": "[2]", "value": "> 1", "unit": "µM"}
    ]},
    {"binder": "Y[Aib]EGTFISDYSIALDR[Aib]HQ[Aib]NFVNW[Iva]LAQRK([PEG3′-γGlu-C18 diacid])SSGAPPPS (ends and bridges not checked)", "note": "[Compound No. 510]", "values": [
      {"measurement": "GIP EC50(pM)", "setting": "[1]", "value": 0.83, "unit": "pM"},
      {"measurement": "GLP EC50", "setting": "[2]", "value": "> 1", "unit": "µM"}
    ]},
    {"binder": "Y[Aib]EGTFISDYSIALDR[Aib]HQ[Aib]NFVNW[Iva]LAQRK([PEG3′-γGlu-C20 diacid])SSGAPPPS (ends and bridges not checked)", "note": "[Compound No. 511]", "values": [
      {"measurement": "GIP EC50(pM)", "setting": "[1]", "value": 1.61, "unit": "pM"},
      {"measurement": "GLP EC50", "setting": "[2]", "value": "> 1", "unit": "µM"}
    ]},
    {"binder": "Y[Aib]EGTFISDYSIALDR[Aib]HQ[Aib]NFVNW[Iva]LAQRPK([PEG3′-γGlu-C16 diacid])SGAPPPSS (ends and bridges not checked)", "note": "[Compound No. 512]", "values": [
      {"measurement": "GIP EC50(pM)", "setting": "[1]", "value": 0.53, "unit": "pM"},
      {"measurement": "GLP EC50", "setting": "[2]", "value": 0.126, "unit": "µM"}
    ]},
    {"binder": "Y[Aib]EGTFISDYSIALDR[Aib]HQ[Aib]NFVNW[Iva]LAQRPK([PEG3′-γGlu-C18 diacid])SGAPPPS (ends and bridges not checked)", "note": "[Compound No. 513]", "values": [
      {"measurement": "GIP EC50(pM)", "setting": "[1]", "value": 0.5, "unit": "pM"},
      {"measurement": "GLP EC50", "setting": "[2]", "value": "> 1", "unit": "µM"}
    ]},
    {"binder": "Y[Aib]EGTFISDYSIALDR[Aib]HQ[Aib]NFVNW[Iva]LAQRPK([PEG3′-γGlu-C20 diacid])SGAPPPS (ends and bridges not checked)", "note": "[Compound No. 514]", "values": [
      {"measurement": "GIP EC50(pM)", "setting": "[1]", "value": 1.14, "unit": "pM"},
      {"measurement": "GLP EC50", "setting": "[2]", "value": "> 1", "unit": "µM"}
    ]},
    {"binder": "Y[Aib]EGTFISDYSIALDR[Aib]HQ[Aib]NFVNW[Iva]LAQRPSK([PEG3′-γGlu-C16 diacid])GAPPPS (ends and bridges not checked)", "note": "[Compound No. 515]", "values": [
      {"measurement": "GIP EC50(pM)", "setting": "[1]", "value": 0.54, "unit": "pM"},
      {"measurement": "GLP EC50", "setting": "[2]", "value": "> 1", "unit": "µM"}
    ]}
  ]
}
